Measured values published in article PMC12113857.

Tested on: T1, MprA(D51E) D51E (Corynebacterium glutamicum ATCC 13032), ORF:c49de587
T1 sequence: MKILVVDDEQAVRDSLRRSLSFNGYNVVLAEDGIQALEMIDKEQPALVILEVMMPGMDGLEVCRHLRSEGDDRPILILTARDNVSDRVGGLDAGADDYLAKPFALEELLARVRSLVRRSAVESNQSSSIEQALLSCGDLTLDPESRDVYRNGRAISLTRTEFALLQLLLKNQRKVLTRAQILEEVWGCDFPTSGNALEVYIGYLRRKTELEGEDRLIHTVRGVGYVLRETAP
Experiment: EMSA
Conditions: Buffer P: 50 mM Tris-HCl pH 7.5, 50 mM KCl, 10 mM MgCl2, 0.5 mM EDTA, 10% glycerol; 30 min at 20 C; DNA 25-107 nM, protein 0-64-fold molar excess; 6% native …

Q: With “CGATACCCTTTTCGTCTTCCAGTCCGTGACAGACTTCCTCCCAATTAAGACGTCCACGCGTTGGAACATATTTCACTTATGCTAACACCTCTTAAGCATAAAGAAGCCAGTTACCTCCTCATTTTAAGAGAAGATAACTGGCTCTTGTTAAATTCTTACCTACAAAAGGTTGTAGGCGATGAATTTAAGGTTTAGAACTGCTCTACGTCCACGAGACCGAGCTGTGCTGCCTTAACCAGACGGCGTGGGATGCGAACGGTCTGACCGTCGATCTTGACCTCCTGAAGGGCGACATTGTCG (double strand) [mprA promoter]” as the sequence, how does the binding read?
A: binds
